What was measured:
[1] = test system: full-length synthetic Tat protein (72 amino acids), unmodified
[2] = test system: histones purified from calf thymus

recombinant G9a (Upstate)
in vitro methylation with radiolabeled SAM, autoradiography [1]: Incubation with the lysine methyltransferase G9a did not result in methylation of Tat
in vitro methylation with radiolabeled SAM, autoradiography [2]: led to the successful methylation of histones as expected
